This note sets out measurements from patent US20130274441A1 (University of California, published 2013).

Data set [1] deals with the molecule itself. As to the kind of experiment: Assembly column; self-assembly.
Data set [2] deals with the molecule itself. As to the kind of experiment: analytical SEC of purified protein; self-assembly.
Data set [3] deals with the molecule itself. Nature of the data set: Assembly column; screening of labeled lysates; self-assembly.
Procedure: For fluorescence analysis, cells were lysed by sonication in 25 mM TRIS pH 7.5, 300 mM NaCl, 8.5 mM MgCl₂, 1 mM dithiothreitol (DTT) supplemented with 1 mM phenylmethanesulfonyl fluoride, and the lysates cleared by centrifugation. […] The labeling reaction was allowed to proceed at 37° C. for 30 min, after which the labeled lysates were analyzed by native PAGE or fluorescence SEC. […] Gels were imaged fluorescently using a Fotodyne gel imaging system equipped with appropriate LEDs and filters.
Data set [4] deals with the molecule itself. As to the kind of experiment: analytical ultracentrifugation c(s) distribution at 4.8 and 2.4 mg mL^-1 (FIG. 4); self-assembly.

Substitutions are numbered along the chain they refer to.

B1: T3-10 with C-terminal (His)6 tag (designed binder)
chain: MTEKEKMLAEKWYDANFDQTLINERLRAKVICFALNHTNPVATMMRKVLIDALFQTTTDNVSISIPFDTDYGWNVKLGKNVYVNTNCYFMDGGQITIGDNVFIGPNCGFYTATHPLNFHHRNEGFEKAGPIHIGSNTWFGGHVAVLPGVTIGEGSVIGAGSVVTKDIPPHSLAVGNPCKVVRKIDNDLPSETLNDETIKLEHHHHHH
notes: Variant of T3-08 with 3 further mutations
Take B1: the binding result in data set [1] is “binds”.

B2: T3-08 with C-terminal (His)6 tag (designed binder)
chain: B1 chain with V41S, M44L, M45K
notes: four trimers assemble to a 12-subunit tetrahedral cage; Derived from PDB 3FTT with 8 mutations; also called tetrahedral design
In the case of B2, the binding result in data set [2] is given as “binds”.

B3: O3-33, construct with peptide tag for fluorescent labeling, in labeled E. coli lysate (designed binder)
chain: MSQAIGILELTSIAAGMELGDAMLKSANVDLLVSKTISPGKFLLMLGGDIGAIQQAIETGTSQAGELLVDSLVLANIHPSVLPAISGLNSVDKRQAVGIVETWSVAACISAADRAVKGSNVTLVRVHMAFGIGGKCYMVVAGDVSDVALAVTVASSSAGAYGLLVYASLIPRPHEAMWRQMVEG
modifications: peptide tag labeled with CoA-488 by AcpS
notes: also called octahedral design
In the case of B3, the binding result in data set [3] was “binds”.

B4: T3-08, construct with peptide tag for fluorescent labeling, in labeled E. coli lysate (designed binder)
chain: MTEKEKMLAEKWYDANFDQTLINERLRAKVICFALNHTNPSATLKRKVLIDALFQTTTDNVSISIPFDTDYGWNVKLGKNVYVNTNCYFMDGGQITIGDNVFIGPNCGFYTATHPLNFHHRNEGFEKAGPIHIGSNTWFGGHVAVLPGVTIGEGSVIGAGSVVTKDIPPHSLAVGNPCKVVRKIDNDLPSETLNDETIK
modifications: peptide tag labeled with CoA-488 by AcpS
notes: also called tetrahedral design
In the case of B4, the binding result in data set [3] is on record as “binds”.

B5: O3-33 with C-terminal (His)6 tag (designed binder)
chain: MSQAIGILELTSIAAGMELGDAMLKSANVDLLVSKTISPGKFLLMLGGDIGAIQQAIETGTSQAGELLVDSLVLANIHPSVLPAISGLNSVDKRQAVGIVETWSVAACISAADRAVKGSNVTLVRVHMAFGIGGKCYMVVAGDVSDVALAVTVASSSAGAYGLLVYASLIPRPHEAMWRQMVEGLEHHHHHH
notes: eight trimers self-assemble through the designed interface to a 24-subunit octahedral cage; Derived from PDB 3N79 with 9 mutations; also called 03-33; octahedral design
On to B5, for which the binding result in data set [4] is reported as “binds”.
